Experimental data as given in article PMC1762320, “Separation of Anti-Proliferation and Anti-Apoptotic Functions of Retinoblastoma Protein through Targeted Mutations of Its A/B Domain” (PLoS ONE, 2006).

Biological target: E2F1 induced in SAOS-2-tet-E2F1 cells (human, UniProt Q01094 1-437)
Assay: cell-based or functional assay

E2F1 induced in SAOS-2-tet-E2F1 cells, sequence (Q01094 whole entry): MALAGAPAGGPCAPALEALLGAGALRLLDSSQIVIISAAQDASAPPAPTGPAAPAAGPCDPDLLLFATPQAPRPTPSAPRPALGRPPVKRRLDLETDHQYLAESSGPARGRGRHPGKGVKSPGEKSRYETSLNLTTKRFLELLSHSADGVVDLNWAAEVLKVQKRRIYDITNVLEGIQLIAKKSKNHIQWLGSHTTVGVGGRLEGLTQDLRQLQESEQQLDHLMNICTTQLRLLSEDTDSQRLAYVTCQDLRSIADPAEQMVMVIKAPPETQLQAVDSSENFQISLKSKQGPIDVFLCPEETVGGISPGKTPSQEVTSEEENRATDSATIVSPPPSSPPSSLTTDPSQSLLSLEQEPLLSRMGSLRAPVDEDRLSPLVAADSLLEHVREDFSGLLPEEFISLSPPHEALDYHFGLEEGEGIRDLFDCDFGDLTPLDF

B1: retinoblastoma protein RB (wild type, expressed in cells) (natural protein, human, UniProt P06400 1-928, looked up)
chain: MPPKTPRKTAATAAAAAAEPPAPPPPPPPEEDPEQDSGPEDLPLVRLEFEETEEPDFTALCQKLKIPDHVRERAWLTWEKVSSVDGVLGGYIQKKKELWGICIFIAAVDLDEMSFTFTELQKNIEISVHKFFNLLKEIDTSTKVDNAMSRLLKKYDVLFALFSKLERTCELIYLTQPSSSISTEINSALVLKVSWITFLLAKGEVLQMEDDLVISFQLMLCVLDYFIKLSPPMLLKEPYKTAVIPINGSPRTPRRGQNRSARIAKQLENDTRIIEVLCKEHECNIDEVKNVYFKNFIPFMNSLGLVTSNGLPEVENLSKRYEEIYLKNKDLDARLFLDHDKTLQTDSIDSFETQRTPRKSNLDEEVNVIPPHTPVRTVMNTIQQLMMILNSASDQPSENLISYFNNCTVNPKESILKRVKDIGYIFKEKFAKAVGQGCVEIGSQRYKLGVRLYYRVMESMLKSEEERLSIQNFSKLLNDNIFHMSLLACALEVVMATYSRSTSQNLDSGTDLSFPWILNVLNLKAFDFYKVIESFIKAEGNLTREMIKHLERCEHRIMESLAWLSDSPLFDLIKQSKDREGPTDHLESACPLNLPLQNNHTAADMYLSPVRSPKKKGSTTRVNSTANAETQATSAFQTQKPLKSTSLSLFYKKVYRLAYLRLNTLCERLLSEHPELEHIIWTLFQHTLQNEYELMRDRHLDQIMMCSMYGICKVKNIDLKFKIIVTAYKDLPHAVQETFKRVLIKEEEYDSIIVFYNSVFMQRLKTNILQYASTRPPTLSPIPHIPRSPYKFPSSPLRIPGGNIYISPLKSPYKISEGLPTPTKMTPRSRILVSIGESFGTSEKFQKINQMVCNSDRVLKRSAEGSNPPKPLKKLRFDIEGSDEADGSKHLPGESKFQQKLAEMTSTRTRMQKQKMNDSMDTSNKEEK
How did the “Gal4-Luc luciferase reporter in SAOS-2 cells co-transfected with Gal4-E2F1 (Gal4 DNA-binding domain and transactivation domain of E2F1) and RB: reduction of Gal4-E2F1 activity” value turn out when B1 was run?
The value was 3 fold.
